In patent US20250243260A1 (ALPINE IMMUNE SCIENCES, published 2025):

Key:
[1] = target: human CD28 (endogenously expressed on primary human T cells) (human) (UniProt P10747); assay: flow cytometry, primary human T cells
[2] = target: T1, human PD-L1 (human, UniProt Q9NZQ7 19-290); assay: flow cytometry, SCC152 cells transduced with human PD-L1, anti-human Fc detection
T1 construct: whole, on cells
Protocol: (§1) Binding affinity to CD28 was determined using primary human T cells which endogenously express CD28. Binding to PD-L1 was determined using SCC152 cells transduced with human PD-L1. Binding to CTLA-4 was measured using Chinese hamster ovary (CHO) cells stably transduced to express human CTLA-4.
(§2) For staining and analysis by flow cytometry, 75,000 human T cells, SCC152/PD-L1 cells, or CHO/CTLA-4 cells were plated in 96-well round-bottom plates. Cells were spun down and resuspended in staining buffer (PBS (phosphate buffered saline), 1% BSA (bovine serum albumin), 1 mM EDTA, and 0.1% sodium azide) for 20 minutes to block non-specific binding. Afterwards, cells were centrifuged, stain buffer aspirated, and then resuspended in 50 μL of a 1:5 serial dilution of each CD80-Fc candidate variant starting at 100 nM ending at 0.8 nM. Primary staining was performed on ice for 60 minutes, before washing cells in […] staining buffer three times. PE-conjugated anti-human Fc (Jackson ImmunoResearch, USA) was diluted 1:250 in 50 μL staining buffer and added to cells and incubated another 30 minutes at 4° C. Cells were washed two times in 150 μL stain buffer and then fixed in 2% formaldehyde/PBS for 5 minutes at room temperature. Samples were analyzed CytoFLEX LX flow cytometer (Beckman Coulter, USA). Median Fluorescence Intensity (MFI) was calculated for each cell type using the CytExpert software from Beckman Coulter.
(§3) Binding assays were carried out to assess the specificity and affinity of multivalent proteins to cell-expressed CTLA-4, CD28, and PD-L1 counter structures.

[3] = target: T1, human PD-L1; assay: flow cytometry, SCC152 cells transduced with human PD-L1; MFI against WT CD80 ECD-Fc
Protocol: as §1, §2, §3

[4] = target: T2, human CD28 on cells (human, UniProt P10747 19-220); assay: flow cytometry, primary human T cells
T2 construct: whole, on cells
Protocol: as §1, §2, §3

[5] = target: T3, human CTLA-4 on CHO cells (human, UniProt P16410 36-223); assay: flow cytometry, CHO/CTLA-4 cells
T3 construct: whole, on cells; also called CHO/CTLA-4
Protocol: as §1, §2, §3

[6] = target: T2, human CD28 on cells; assay: cell-based or functional assay

T1 sequence (Q9NZQ7 19-290): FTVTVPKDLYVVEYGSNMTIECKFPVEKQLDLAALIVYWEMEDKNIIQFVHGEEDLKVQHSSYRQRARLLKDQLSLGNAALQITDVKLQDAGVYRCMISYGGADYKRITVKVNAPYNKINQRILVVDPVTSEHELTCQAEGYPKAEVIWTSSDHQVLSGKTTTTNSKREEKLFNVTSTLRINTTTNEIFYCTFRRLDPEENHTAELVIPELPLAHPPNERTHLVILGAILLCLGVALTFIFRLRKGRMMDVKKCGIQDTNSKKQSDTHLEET
T3 sequence (P16410 36-223): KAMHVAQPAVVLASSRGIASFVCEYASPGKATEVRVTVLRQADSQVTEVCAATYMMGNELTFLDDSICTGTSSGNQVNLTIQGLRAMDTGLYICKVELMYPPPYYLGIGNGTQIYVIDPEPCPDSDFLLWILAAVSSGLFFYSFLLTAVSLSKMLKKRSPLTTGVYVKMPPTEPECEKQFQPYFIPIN

Row | MFI (anti-human Fc) at 0.8 nM [1] | MFI (anti-human Fc) at 4 nM [1] | MFI (anti-human Fc) at 20 nM [1] | Anti-Human Fc (MFI) at 0.8 nM [4] | Anti-Human Fc (MFI) at 4 nM [4] | Anti-Human Fc (MFI) at 20 nM [4] | Anti-Human Fc (MFI) at 100 nM [4] | Anti-Human Fc (MFI) at 0.8 nM [5] | Anti-Human Fc (MFI) at 4 nM [5] | Anti-Human Fc (MFI) at 20 nM [5] | Anti-Human Fc (MFI) at 100 nM [5] | Molecule | further results
1 | 245 MFI | 246 MFI | 262 MFI |  |  |  |  |  |  |  |  | CD80_194-Fc, variant CD80 IgV-Fc V11Y/M42W/T62A (Fc fusion) | MFI (anti-human Fc) at 100 nM [1]: 298 MFI; fold change of MFI vs WT CD80 at 20 nM [1]: 1.5 fold
2 | 201 MFI | 191 MFI | 224 MFI |  |  |  |  |  |  |  |  | CD80_188-Fc, variant CD80 IgV-Fc E35D/V68L/L85E (Fc fusion) | 
3 | 193 MFI | 209 MFI | 224 MFI |  |  |  |  |  |  |  |  | CD80_227-Fc, variant CD80 IgV-Fc V11W/T28H/D46Q/V68L/L85E (Fc fusion) | MFI (anti-human Fc) at 100 nM [1]: 283 MFI; fold change of MFI vs WT CD80 at 20 nM [1]: 1.2 fold
4 |  |  |  |  |  |  |  |  |  |  |  | CD80-Fc-CD80_338 (CD80_180 E10G/V11W/T28Y/M47L, IgG1 Fc) (Fc fusion, tetravalent) VIHVTKEVKGWATLSCGHNVSVEELAQYRIYWQKEKKMVLTMMSGDLNIWPEYKNRTIFDITNNLSIVILALRPSDEGTYECVVLKYEKDAFKREHLAEVTLSVKADGSGGGGSDKTHTCPPCPAPEAEGAPSVFLFPPKPKDTLMISRTPEVTCVVVDVSHEDPEVKFNWYVDGVEVHNAKTKPREEQYNSTYRVVSVLTVLHQDWLNGKEYKCKVSNKALPAPIEKTISKAKGQPREPQVYTLPPSRDELTKNQVSLTCLVKGFYPSDIAVEWESNGQPENNYKTTPPVLDSDGSFFLYSKLTVDKSRWQQGNVFSCSVMHEALHNHYTQKSLSLSPGGGGGSGGGGSGGGGSVIHVTKEVKGWATLSCGYNVSVEELAQYRIYWQKEKKMVLTMMSGDLNIWPEYKNRTIFDITNNLSIVILALRPSDEGTYECVVLKYEKDAFKREHLAEVTLSVKAD | Anti-Human Fc (MFI) at 0.8 nM [2]: 6250 MFI; Anti-Human Fc (MFI) at 4 nM [2]: 9300 MFI; Anti-Human Fc (MFI) at 20 nM [2]: 11000 MFI; Anti-Human Fc (MFI) at 100 nM [2]: 12500 MFI; Fold change vs WT CD80 @20 nM [3]: 16.2 fold
5 |  |  |  | 552 MFI | 926 MFI | 1350 MFI | 2330 MFI | 367000 MFI | 439000 MFI | 470000 MFI | 511000 MFI | CD80-Fc-CD80_338 (Fc fusion) VIHVTKEVKGWATLSCGHNVSVEELAQYRIYWQKEKKMVLTMMSGDLNIWPEYKNRTIFDITNNLSIVILALRPSDEGTYECVVLKYEKDAFKREHLAEVTLSVKADGSGGGGSDKTHTCPPCPAPEAEGAPSVFLFPPKPKDTLMISRTPEVTCVVVDVSHEDPEVKFNWYVDGVEVHNAKTKPREEQYNSTYRVVSVLTVLHQDWLNGKEYKCKVSNKALPAPIEKTISKAKGQPREPQVYTLPPSRDELTKNQVSLTCLVKGFYPSDIAVEWESNGQPENNYKTTPPVLDSDGSFFLYSKLTVDKSRWQQGNVFSCSVMHEALHNHYTQKSLSLSPGGGGGSGGGGSGGGGSVIHVTKEVKGWATLSCGYNVSVEELAQYRIYWQKEKKMVLTMMSGDLNIWPEYKNRTIFDITNNLSIVILALRPSDEGTYECVVLKYEKDAFKREHLAEVTLSVKAD | 
6 |  |  |  | 520 MFI | 793 MFI | 1020 MFI | 1380 MFI | 210000 MFI | 305000 MFI | 322000 MFI | 320000 MFI | CD80-Fc-CD80_339 (Fc fusion, also called CD80_185 V11Y/T28Y/M47L barbell) VIHVTKEVKEYATLSCGHNVSVEELAQYRIYWQKEKKMVLTMMSGDLNIWPEYKNRTIFDITNNLSIVILALRPSDEGTYECVVLKYEKDAFKREHLAEVTLSVKADGSGGGGSPCPPCPAPEFLGGPSVFLFPPKPKDTLMISRTPEVTCVVVDVSQEDPEVQFNWYVDGVEVHNAKTKPREEQFNSTYRVVSVLTVLHQDWLNGKEYKCKVSNKGLPSSIEKTISKAKGQPREPQVYTLPPSQEEMTKNQVSLTCLVKGFYPSDIAVEWESNGQPENNYKTTPPVLDSDGSFFLYSRLTVDKSRWQEGNVFSCSVMHEALHNHYTQKSLSLSLGGGGGSGGGGSGGGGSVIHVTKEVKEYATLSCGYNVSVEELAQYRIYWQKEKKMVLTMMSGDLNIWPEYKNRTIFDITNNLSIVILALRPSDEGTYECVVLKYEKDAFKREHLAEVTLSVKAD | 
7 |  |  |  |  |  |  |  |  |  |  |  | CD80-Fc-CD80_339 (CD80_185 V11Y/T28Y/M47L) (Fc fusion, tetravalent) VIHVTKEVKEYATLSCGHNVSVEELAQYRIYWQKEKKMVLTMMSGDLNIWPEYKNRTIFDITNNLSIVILALRPSDEGTYECVVLKYEKDAFKREHLAEVTLSVKADGSGGGGSPCPPCPAPEFLGGPSVFLFPPKPKDTLMISRTPEVTCVVVDVSQEDPEVQFNWYVDGVEVHNAKTKPREEQFNSTYRVVSVLTVLHQDWLNGKEYKCKVSNKGLPSSIEKTISKAKGQPREPQVYTLPPSQEEMTKNQVSLTCLVKGFYPSDIAVEWESNGQPENNYKTTPPVLDSDGSFFLYSRLTVDKSRWQEGNVFSCSVMHEALHNHYTQKSLSLSLGGGGGSGGGGSGGGGSVIHVTKEVKEYATLSCGYNVSVEELAQYRIYWQKEKKMVLTMMSGDLNIWPEYKNRTIFDITNNLSIVILALRPSDEGTYECVVLKYEKDAFKREHLAEVTLSVKAD | Anti-Human Fc (MFI) at 0.8 nM [2]: 4180 MFI; Anti-Human Fc (MFI) at 4 nM [2]: 6180 MFI; Anti-Human Fc (MFI) at 20 nM [2]: 7120 MFI; Anti-Human Fc (MFI) at 100 nM [2]: 8090 MFI; Fold change vs WT CD80 @20 nM [3]: 10.4 fold
8 |  |  |  | 676 MFI | 1070 MFI | 1410 MFI | 1740 MFI | 206000 MFI | 280000 MFI | 297000 MFI | 282000 MFI | CD80-Fc-CD80_341 (Fc fusion, also called CD80_197 V11Y/E35D/Y87Q/T101R barbell) VIHVTKEVKEYATLSCGHNVSVEELAQTRIYWQKDKKMVLTMMSGDMNIWPEYKNRTIFDITNNLSIVILALRPSDEGTYECVVLKQEKDAFKREHLAEVRLSVKADGSGGGGSPCPPCPAPEFLGGPSVFLFPPKPKDTLMISRTPEVTCVVVDVSQEDPEVQFNWYVDGVEVHNAKTKPREEQFNSTYRVVSVLTVLHQDWLNGKEYKCKVSNKGLPSSIEKTISKAKGQPREPQVYTLPPSQEEMTKNQVSLTCLVKGFYPSDIAVEWESNGQPENNYKTTPPVLDSDGSFFLYSRLTVDKSRWQEGNVFSCSVMHEALHNHYTQKSLSLSLGGGGGSGGGGSGGGGSVIHVTKEVKEYATLSCGYNVSVEELAQTRIYWQKDKKMVLTMMSGDMNIWPEYKNRTIFDITNNLSIVILALRPSDEGTYECVVLKQEKDAFKREHLAEVRLSVKAD | Fold change vs WT CD80 @20 nM [4]: 7.8 fold; Fold change vs WT CD80 @20 nM [5]: 0.36 fold; Fold Increase over WT at 50 nM [6]: 6.42 fold; Rel. Luminescence Units (RLU) at 2 nM, K562/OKT3/PD-L1 + Jurkat/IL-2 reporter [6]: 13100 RLU; Rel. Luminescence Units (RLU) at 10 nM, K562/OKT3/PD-L1 + Jurkat/IL-2 reporter [6]: 16000 RLU; Rel. Luminescence Units (RLU) at 50 nM, K562/OKT3/PD-L1 + Jurkat/IL-2 reporter [6]: 15700 RLU; Rel. Luminescence Units (RLU) at 250 nM, K562/OKT3/PD-L1 + Jurkat/IL-2 reporter [6]: 15200 RLU
